Literature values as cited in paper PMC7522120.
pKd: −log10 of the molar value.

Biological target: Folate receptor alpha (Homo sapiens) (UniProt P15328)
Sequence (P15328 25-234): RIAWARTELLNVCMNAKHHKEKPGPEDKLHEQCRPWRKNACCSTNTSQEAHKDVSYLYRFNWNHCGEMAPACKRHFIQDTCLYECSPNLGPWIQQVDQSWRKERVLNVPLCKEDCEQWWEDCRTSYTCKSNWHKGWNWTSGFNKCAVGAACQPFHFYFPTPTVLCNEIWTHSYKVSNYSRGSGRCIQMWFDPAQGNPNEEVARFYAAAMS

pKd: 8.70
Substance: farletuzumab
